The results in this text go back to patent US20100129369A1 (Eli Lilly, published 2010).

Experiment [1] concerns the target T1, RON-ECD-Fc (human, UniProt Q04912 25-957).
T1 construct: extracellular domain; Bought reagent; not shown: Fc part of the bought fusion
T1 sequence (looked up): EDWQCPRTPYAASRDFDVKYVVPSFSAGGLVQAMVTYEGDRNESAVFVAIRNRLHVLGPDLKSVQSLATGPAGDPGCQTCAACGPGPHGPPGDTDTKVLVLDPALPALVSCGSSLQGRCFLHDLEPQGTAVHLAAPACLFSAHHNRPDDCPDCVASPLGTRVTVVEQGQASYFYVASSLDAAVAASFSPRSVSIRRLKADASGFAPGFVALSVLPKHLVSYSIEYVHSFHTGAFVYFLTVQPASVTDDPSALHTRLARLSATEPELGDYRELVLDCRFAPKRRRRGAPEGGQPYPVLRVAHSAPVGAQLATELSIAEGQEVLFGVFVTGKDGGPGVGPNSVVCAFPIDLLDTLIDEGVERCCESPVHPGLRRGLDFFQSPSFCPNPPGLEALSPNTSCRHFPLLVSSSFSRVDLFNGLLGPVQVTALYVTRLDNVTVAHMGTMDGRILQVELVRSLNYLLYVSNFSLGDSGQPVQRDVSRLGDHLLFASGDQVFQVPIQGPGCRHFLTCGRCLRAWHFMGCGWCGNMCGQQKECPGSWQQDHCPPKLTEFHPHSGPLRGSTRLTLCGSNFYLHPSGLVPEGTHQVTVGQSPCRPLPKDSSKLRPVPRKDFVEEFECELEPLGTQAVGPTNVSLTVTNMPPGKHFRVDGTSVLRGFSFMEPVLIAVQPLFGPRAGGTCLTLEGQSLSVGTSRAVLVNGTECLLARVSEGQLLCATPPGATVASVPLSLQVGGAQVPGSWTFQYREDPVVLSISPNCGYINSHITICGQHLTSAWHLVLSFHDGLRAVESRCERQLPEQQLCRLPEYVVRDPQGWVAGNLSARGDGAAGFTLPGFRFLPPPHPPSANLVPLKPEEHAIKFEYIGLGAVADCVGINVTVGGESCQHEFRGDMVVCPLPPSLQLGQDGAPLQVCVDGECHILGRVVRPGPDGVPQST
Kind of experiment: ELISA, coated ECD-Fc, antibody 0.000 ng/mL. Here is the method: (§1) Wells of 96-well EIA/RIA high binding plates (Costar, #2592) are coated with 100 μL of 1 μg/mL human c-Met extracellular domain (ECD)-Fc-Flis fusion (SEQ ID NO:72), RON-ECD-Fc (R&D Systems, #1947-MS), or PlexinA2-ECD-Fc (Abnova, Taipei, Taiwan #H00005362-P01) in coating buffer (BioFX Labs, # COAT-1000-01) overnight at 4° C. […] After the plates are washed, 100 μL/well of substrate solution (BioFx, #TMBW-1000-01) are added and the plates are incubated for 10 min. at room temperature. 100 μL/well of stop solution (BioFx, # LSTP-1000-01) are added to stop the reaction. The colorimetric signals are developed and read at 450 nm using a SpectraMax 190 plate reader (Molecular Devices, Sunnyvale, Calif.). c-Met antibody binding to c-Met, RON and PlexinA2 ECDs is proportional to color signal production.
For orientation: ELISA stands for enzyme-linked immunosorbent assay.

Experiment [2] deals with T2, Human c-Met-Flis-Fc ECD (human).
T2 construct: also called human c-Met extracellular domain (ECD)-Fc-Flis fusion; Human cMet-ECD-Fc-Flis
T2 sequence (chain, as listed by the source limits assumed): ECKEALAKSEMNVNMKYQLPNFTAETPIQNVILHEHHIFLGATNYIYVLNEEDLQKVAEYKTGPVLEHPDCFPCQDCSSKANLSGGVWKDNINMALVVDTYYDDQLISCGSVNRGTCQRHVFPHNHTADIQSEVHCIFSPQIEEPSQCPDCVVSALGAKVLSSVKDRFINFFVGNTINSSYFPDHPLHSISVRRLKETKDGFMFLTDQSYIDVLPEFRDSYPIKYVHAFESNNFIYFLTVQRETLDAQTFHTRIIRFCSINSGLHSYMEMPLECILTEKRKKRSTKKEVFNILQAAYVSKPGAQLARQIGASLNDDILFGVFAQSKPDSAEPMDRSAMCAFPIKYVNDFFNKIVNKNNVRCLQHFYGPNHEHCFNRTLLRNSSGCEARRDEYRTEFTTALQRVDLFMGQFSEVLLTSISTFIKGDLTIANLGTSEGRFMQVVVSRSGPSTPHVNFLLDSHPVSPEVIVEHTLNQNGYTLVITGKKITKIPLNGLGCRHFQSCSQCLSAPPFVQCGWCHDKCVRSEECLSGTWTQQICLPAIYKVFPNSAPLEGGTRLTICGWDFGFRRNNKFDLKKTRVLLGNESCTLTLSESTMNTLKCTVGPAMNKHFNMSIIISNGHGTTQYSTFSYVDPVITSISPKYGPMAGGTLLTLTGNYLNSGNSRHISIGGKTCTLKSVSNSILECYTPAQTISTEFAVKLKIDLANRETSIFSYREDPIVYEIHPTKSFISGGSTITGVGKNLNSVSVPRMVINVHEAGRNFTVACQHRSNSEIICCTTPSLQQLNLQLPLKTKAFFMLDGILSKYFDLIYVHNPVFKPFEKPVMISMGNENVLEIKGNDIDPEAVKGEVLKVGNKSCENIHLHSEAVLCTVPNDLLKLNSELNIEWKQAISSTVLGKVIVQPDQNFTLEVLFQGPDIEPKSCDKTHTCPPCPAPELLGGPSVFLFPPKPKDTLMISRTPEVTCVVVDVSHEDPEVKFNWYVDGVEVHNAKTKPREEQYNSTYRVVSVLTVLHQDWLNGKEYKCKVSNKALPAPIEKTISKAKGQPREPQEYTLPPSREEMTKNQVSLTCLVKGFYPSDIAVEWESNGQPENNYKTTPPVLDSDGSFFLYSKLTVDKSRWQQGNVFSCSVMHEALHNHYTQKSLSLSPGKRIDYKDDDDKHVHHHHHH
The experiment is described as follows: ELISA, coated ECD-Fc, antibody 0.000 ng/mL. Here is the method: as §1

For experiment [3], the target named is T3, PlexinA2-ECD-Fc (human, UniProt O75051 35-1237).
T3 construct: extracellular domain; Bought reagent
T3 sequence (looked up): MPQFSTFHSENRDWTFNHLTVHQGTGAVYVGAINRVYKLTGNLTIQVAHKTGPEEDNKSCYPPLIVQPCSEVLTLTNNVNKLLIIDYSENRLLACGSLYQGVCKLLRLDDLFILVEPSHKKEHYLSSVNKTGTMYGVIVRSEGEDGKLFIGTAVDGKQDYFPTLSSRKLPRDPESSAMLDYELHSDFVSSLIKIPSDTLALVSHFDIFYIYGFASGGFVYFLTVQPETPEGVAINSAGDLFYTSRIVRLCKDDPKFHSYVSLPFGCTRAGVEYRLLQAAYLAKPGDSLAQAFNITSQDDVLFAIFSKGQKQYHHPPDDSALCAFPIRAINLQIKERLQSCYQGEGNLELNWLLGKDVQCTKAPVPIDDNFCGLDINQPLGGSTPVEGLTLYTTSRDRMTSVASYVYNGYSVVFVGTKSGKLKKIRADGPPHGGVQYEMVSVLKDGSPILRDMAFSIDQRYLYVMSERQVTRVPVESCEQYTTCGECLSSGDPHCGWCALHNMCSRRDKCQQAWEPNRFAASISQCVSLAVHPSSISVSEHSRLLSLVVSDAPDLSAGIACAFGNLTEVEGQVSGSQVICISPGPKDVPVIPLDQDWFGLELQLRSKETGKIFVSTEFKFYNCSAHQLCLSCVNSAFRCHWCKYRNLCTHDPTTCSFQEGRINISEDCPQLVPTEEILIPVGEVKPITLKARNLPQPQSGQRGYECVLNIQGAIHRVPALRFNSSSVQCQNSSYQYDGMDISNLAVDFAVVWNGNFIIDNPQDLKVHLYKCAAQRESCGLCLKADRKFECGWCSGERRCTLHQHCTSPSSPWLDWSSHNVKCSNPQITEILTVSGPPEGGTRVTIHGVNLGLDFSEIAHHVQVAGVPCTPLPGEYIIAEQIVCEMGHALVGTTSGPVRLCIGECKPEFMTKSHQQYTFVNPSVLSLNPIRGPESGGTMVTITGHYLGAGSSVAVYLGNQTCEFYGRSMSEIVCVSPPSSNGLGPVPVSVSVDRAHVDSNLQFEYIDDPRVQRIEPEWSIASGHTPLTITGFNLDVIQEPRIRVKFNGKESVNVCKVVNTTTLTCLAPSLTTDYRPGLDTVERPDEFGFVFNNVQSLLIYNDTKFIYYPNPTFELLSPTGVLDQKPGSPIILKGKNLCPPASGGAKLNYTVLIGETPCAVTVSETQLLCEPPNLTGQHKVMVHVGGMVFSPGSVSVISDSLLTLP
The experiment is described as follows: ELISA, coated ECD-Fc, antibody 0.000 ng/mL. Here is the method:
as §1

Experiment [4] addresses T1, RON-ECD-Fc. The experiment is described as follows: ELISA, coated ECD-Fc, antibody 0.002 ng/mL.
Experiment [5] concerns the target T1, RON-ECD-Fc. Kind of experiment: ELISA, coated ECD-Fc, antibody 0.357 ng/mL. Here is the method: as §1
Experiment [6] concerns the target T2, Human c-Met-Flis-Fc ECD. The experiment is described as follows: ELISA, coated ECD-Fc, antibody 0.357 ng/mL. Here is the method:
as §1

In experiment [7] the target is T3, PlexinA2-ECD-Fc. Kind of experiment: ELISA, coated ECD-Fc, antibody 0.357 ng/mL. Here is the method:
as §1

B1: C8-6 (antibody, human IgG2, kappa, V domains shown)
VH: QVQLVQSGAEVKKPGASVKVSCKASGYTFTDYYMHWVRQAPGQGLEWMGRVNPNRGGTTYNQKFEGRVTMTTDTSTSTAYMELRSLRSDDTAVYYCARTNWLDYWGQGTTVTVSS
VL: DIQMTQSPSSLSASVGDRVTITCSVSSSVSSIYLHWYQQKPGKAPKLLIYSTSNLASGVPSRFSGSGSGTDFTLTISSLQPEDFATYYCIQYSGYPLTFGGGTKVEIKR
notes: Called IgG4, kappa; also called Mab C8-6
Take B1: the “Average A450 nm” value with RON-ECD-Fc [1] amounted to 0.11 A450 nm; in the experiment with Human c-Met-Flis-Fc ECD [2], 0.322 A450 nm; with PlexinA2-ECD-Fc [3], 0.109 A450 nm; in the experiment with RON-ECD-Fc [4], 0.106 A450 nm; with RON-ECD-Fc [5], 0.08 A450 nm; with Human c-Met-Flis-Fc ECD [6], 0.813 A450 nm. Besides, the “Average A450 nm” value with PlexinA2-ECD-Fc [7] amounted to 0.107 A450 nm.
